Laboratory results published in PMC3285612.

How the values were obtained:
[1] = target: activated coagulation factor X (FXa), human (human); experiment: enzyme inhibition assay (Ki from IC50 by Cheng and Prusoff); rSimukunin titrated against a constant concentration of enzyme, pre-incubated 5 min, fluorogenic peptidyl substrate 250 µM, 30°C; Ki calculated from the IC50 and the substrate's Km; estimated
[2] = target: activated coagulation factor X (FXa), human (human)

B1: recombinant Simukunin (rSV-66) (natural protein)
chain: QENVCNLPVDEGVCRALFKRFYYEPATDSCKEFYYGGCEGNGNRFKSKKECILKCQKNKQLIKTRKRKPKKTTKPPIPIISLD
In the case of B1, the Ki [1] is reported as 2.1 nM and the IC50 of inhibition of enzyme activity (fluorogenic peptidyl substrate, 250 µM); Factor Xa 0.1 nM [2] is reported as 5.2 nM.
